One may read the EC50 as the concentration at which the effect is half-maximal. Broadly, the Kd is the constant that tells how readily two partners part at equilibrium.

Drawing on patent US20220306729A1 (published 2022), this text covers EC50 and Kd for four molecules.

In test [1] the target is ZIKV envelope domain III (ZEDIII), polyhistidine-AviTag, made in HEK-293-6E cells. As to the kind of experiment: ELISA. Background: In an ELISA, binding on a coated surface is turned into a signal by an enzyme label.
A further test has as its target Human FcRn. Description: SPR. (Surface plasmon resonance follows binding to a sensor surface in real time, without labels.)

B1: Z037 (antibody, V domains shown)
VH: QVQLQESGPGLVKPSETLSLTCSVSGYFISSGHYWGWIRQSPGKGLEWIASIYQSGSKFQTGNTYYNPSLESRVTISMDTSKNQFSLKLSSVTAADTAVYFCARDARSRSWDRTGFFGPWGQGILVTVSS
VL: EIVLTQSPGTLSLSPGERATLSCRASQSLSSSFLAWYQQKPGQSPRLLIYGTSSRDTGIPDRFSGSGSGTDFTLTISRLEPEDSAVYYCQQYGSSWGTFGQGTKLEIK
For B1, in test [1], the EC50 was over 0.4 µg/mL.

B2: Z010 (MEX105_88) (antibody, V domains shown)
VH: EVQLLESGGGLVQPGGSLRLSCAASGFTFSNYAMAWVRQAPGKGLEWVSLIYSGDDSTYYADFVKGRFTISRHNSKNTLSLQMNSLRAEDTAIYYCVKDRGTGWSSIVHWGQGTLVTVSS
VL: DIQMTQSPSTLSASVGDRVTITCRASQTISNWLAWYQQKPGKAPKLLIYQASSLESGVPSRFSGSGSGTEFTLTISSLQPDDFATYYCQQYSTYWTFGQGTKVEIK
In test [1], B2 displayed an EC50 of over 0.4 µg/mL.

B3: Z012 (antibody, V domains shown)
VH: QVQLVQSGAEVKKSGASVKVSCKASGYSFTTNYIHWVRQAPGQGPEWMGIINPRGGSTTYAQKFQGRVLMTSDTSTSTVYMELSSLRSEDRAVYYCARGKNHQTTVAVLSWYYGMDVWGQGTTVTVSS
VL: DIQMTQSPSSVSASVGDRVTITCRASQGISSWLAWYQQKPGKAPKLLISAASSLQSGVPSRFSGSGSGTDFTLTISNLQPEDFATYFCQQANSFPYTFGQGTKLEIK
Molecule B3 showed an EC50 in test [1] of 0.2 µg/mL.

B4: GRLR/LS (antibody)
heavy: EVQLLESGGGLVQPGGSLRLTCATSGFTFRDYAMSWVRQAPGKGLEWVSSYSGIDDSTYYADSVKGRFTISRDNSKSTLSLHMNSLRAEDSALYFCAKDRGPRGVGELFDSWGQGTLVTVSSASTKGPSVFPLAPSSKSTSGGTAALGCLVKDYFPEPVTVSWNSGALTSGVHTFPAVLQSSGLYSLSSVVTVPSSSLGTQTYICNVNHKPSNTKVDKRVEPKSCDKTHTCPPCPAPELLRGPSVFLFPPKPKDTLMISRTPEVTCVVVDVSHEDPEVKFNWYVDGVEVHNAKTKPREEQYNSTYRVVSVLTVLHQDWLNGKEYKCKVSNKARPAPIEKTISKAKGQPREPQVYTLPPSREEMTKNQVSLTCLVKGFYPSDIAVEWESNGQPENNYKTTPPVLDSDGSFFLYSKLTVDKSRWQQGNVFSCSVLHEALHSHYTQKSLSLSPG
light: DIQMTQSPSTLSASVGDRVTITCRASQSISKWLAWYQQKPGKAPKLLIYTTSTLKSGVPSRFSGSGSGTEFTLTISSLQPDDFATYYCQHFYSVPWTFGQGTKVEIKRTVAAPSVFIFPPSDEQLKSGTASVVCLLNNFYPREAKVQWKVDNALQSGNSQESVTEQDSKDSTYSLSSTLTLSKADYEKHKVYACEVTHQGLSSPVTKSFNRGEC
Take B4: binding with Human FcRn was put at a Kd of 5.2 nM.
